Measured values as given in US20200231654A1 (Daiichi Sankyo, published 2020).

Key:
[1] = biological target: T1, biotin-labeled active hMMP-9(cat)_FLAG_Avi (human, UniProt P14780 107-449, biotin on the Avi tag (biotin ligase BirA)); test: ELISA, biotinylated target on streptavidin plate, anti-S-tag HRP detection
T1 construct: His tag and propeptide removed; also called active human MMP-9 enzyme active domain
Experimental: (§1) The biotin-labeled pro-hMMP-9(cat)_His6_FLAG_Avi obtained in (2-1-6) or biotin-labeled active hMMP-9(cat)_FLAG_Avi obtained in (2-1-7) was immobilized on a streptavidin coated 96-well plate (Thermo Fisher Scientific). After blocking with 3% BSA, 1 to 1,000 nM of the binding peptides were added, and reacted at room temperature for 1.5 hours. After washing, goat anti-S-Tag HRP conjugated (Bethyl Laboratories, Inc.) was added, and reacted at room temperature for 1 hour. After washing, substrates of ELISA POD substrate A.B.T.S kit (Nacalai Tesque Inc.) were added, and reacted at room temperature.

[2] = biological target: T2, biotin-labeled pro-hMMP-9(cat)_His6_FLAG_Avi (human, UniProt P14780 20-449, biotin on the Avi tag (biotin ligase BirA)); test: as above
T2 construct: Secretion signal Met1-Ala19 left out; also called pro human MMP-9 enzyme active domain; not shown: His tag (His6 by the construct's name)
Experimental: as §1

hMMP-9(cat)_E402Q_His6 = biological target: T3, hMMP-9(cat)_E402Q_His6 (human, UniProt P14780 107-449); test: size exclusion chromatography of the mixture
T3 construct: also called human MMP-9 enzyme active domain E402Q mutant; human MMP-9 E402Q mutant; not shown: His tag (His6 by the construct's name)
Experimental: After the reaction, 10 μl of the reaction solution was analyzed by size exclusion chromatography. The chromatographic conditions were as follows.

active hMMP-9(cat)_V398A = active hMMP-9(cat)_V398A (human, UniProt P14780 107-449); test: cell-based or functional assay
active hMMP-9(cat)_M422I = active hMMP-9(cat)_M422I (human, UniProt P14780 107-449); test: cell-based or functional assay
active hMMP-9(cat)_D185A = active hMMP-9(cat)_D185A (human, UniProt P14780 107-449); test: cell-based or functional assay
active hMMP-9(cat)_L397A = active hMMP-9(cat)_L397A (human, UniProt P14780 107-449); test: cell-based or functional assay
active hMMP-9(cat)_Y423A = active hMMP-9(cat)_Y423A (human, UniProt P14780 107-449); test: cell-based or functional assay
active hMMP-9(cat)_F192A = active hMMP-9(cat)_F192A (human, UniProt P14780 107-449); test: cell-based or functional assay
active hMMP-9(cat)_R424T = active hMMP-9(cat)_R424T (human, UniProt P14780 107-449); test: cell-based or functional assay
active hMMP-9(cat)_P193A = active hMMP-9(cat)_P193A (human, UniProt P14780 107-449); test: cell-based or functional assay
active hMMP-9(cat)_Y179A = active hMMP-9(cat)_Y179A (human, UniProt P14780 107-449); test: cell-based or functional assay
active hMMP-9(cat)_Y393A = active hMMP-9(cat)_Y393A (human, UniProt P14780 107-449); test: cell-based or functional assay
active hMMP-9(cat) = active hMMP-9(cat) (human, UniProt P14780 107-449); test: cell-based or functional assay
active hMMP-9(cat)_Y420A = active hMMP-9(cat)_Y420A (human, UniProt P14780 107-449); test: cell-based or functional assay
active hMMP-9(cat)_F110A = active hMMP-9(cat)_F110A (human, UniProt P14780 107-449); test: cell-based or functional assay
active hMMP-9(cat)_L187A = active hMMP-9(cat)_L187A (human, UniProt P14780 107-449); test: cell-based or functional assay
active hMMP-9(cat)_Q199G = active hMMP-9(cat)_Q199G (human, UniProt P14780 107-449); test: cell-based or functional assay
Sequence of active hMMP-9(cat)_Q199G (P14780 107-449 Q199G): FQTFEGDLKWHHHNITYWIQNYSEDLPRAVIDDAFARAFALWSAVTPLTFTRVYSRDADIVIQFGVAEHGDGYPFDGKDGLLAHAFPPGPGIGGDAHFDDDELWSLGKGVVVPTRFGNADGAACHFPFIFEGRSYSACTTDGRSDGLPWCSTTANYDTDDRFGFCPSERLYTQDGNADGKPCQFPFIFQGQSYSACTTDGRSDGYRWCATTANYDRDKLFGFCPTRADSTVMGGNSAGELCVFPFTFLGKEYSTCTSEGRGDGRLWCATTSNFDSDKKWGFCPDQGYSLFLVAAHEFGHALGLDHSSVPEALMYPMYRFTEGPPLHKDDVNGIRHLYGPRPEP

T1 sequence (P14780 other isoform, or with tags, fused parts or gaps): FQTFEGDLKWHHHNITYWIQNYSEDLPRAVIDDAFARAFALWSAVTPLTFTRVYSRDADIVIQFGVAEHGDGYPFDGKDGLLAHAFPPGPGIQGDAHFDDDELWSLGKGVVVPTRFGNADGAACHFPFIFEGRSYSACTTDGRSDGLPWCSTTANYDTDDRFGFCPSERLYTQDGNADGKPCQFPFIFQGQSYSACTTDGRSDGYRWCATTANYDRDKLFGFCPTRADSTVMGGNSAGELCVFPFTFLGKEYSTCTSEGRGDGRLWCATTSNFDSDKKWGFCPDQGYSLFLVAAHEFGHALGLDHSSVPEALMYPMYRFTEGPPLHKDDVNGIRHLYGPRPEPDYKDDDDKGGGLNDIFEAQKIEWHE
T2 sequence (P14780 other isoform, or with tags, fused parts or gaps): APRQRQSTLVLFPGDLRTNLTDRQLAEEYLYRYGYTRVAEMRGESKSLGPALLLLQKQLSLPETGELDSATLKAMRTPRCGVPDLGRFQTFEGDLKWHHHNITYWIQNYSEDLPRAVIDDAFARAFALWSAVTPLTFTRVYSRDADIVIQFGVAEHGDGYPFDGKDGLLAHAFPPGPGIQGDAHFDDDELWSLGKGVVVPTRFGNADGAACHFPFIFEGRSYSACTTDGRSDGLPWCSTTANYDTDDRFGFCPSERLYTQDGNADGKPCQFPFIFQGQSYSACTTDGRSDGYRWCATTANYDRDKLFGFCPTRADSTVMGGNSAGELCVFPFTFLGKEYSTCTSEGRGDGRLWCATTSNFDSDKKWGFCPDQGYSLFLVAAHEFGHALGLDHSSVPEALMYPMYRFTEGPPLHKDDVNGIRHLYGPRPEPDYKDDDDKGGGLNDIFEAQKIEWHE
Sequence of active hMMP-9(cat)_Y179A (P14780 107-449 Y179A): as the sequence (P14780 107-449 Q199G) above, with Y73A, G93Q counted along it
Sequence of active hMMP-9(cat)_V398A (P14780 107-449 V398A): as the sequence (P14780 107-449 Q199G) above, with G93Q, V292A counted along it
Sequence of active hMMP-9(cat)_F192A (P14780 107-449 F192A): as the sequence (P14780 107-449 Q199G) above, with F86A, G93Q counted along it
Sequence of active hMMP-9(cat) (P14780 107-449): as the sequence (P14780 107-449 Q199G) above, with G93Q counted along it
Sequence of active hMMP-9(cat)_M422I (P14780 107-449 M422I): as the sequence (P14780 107-449 Q199G) above, with G93Q, M316I counted along it
Sequence of active hMMP-9(cat)_Y423A (P14780 107-449 Y423A): as the sequence (P14780 107-449 Q199G) above, with G93Q, Y317A counted along it
Sequence of active hMMP-9(cat)_Y393A (P14780 107-449 Y393A): as the sequence (P14780 107-449 Q199G) above, with G93Q, Y287A counted along it
Sequence of active hMMP-9(cat)_L397A (P14780 107-449 L397A): as the sequence (P14780 107-449 Q199G) above, with G93Q, L291A counted along it
T3 sequence (P14780 107-449 E402Q): as the sequence (P14780 107-449 Q199G) above, with G93Q, E296Q counted along it
Sequence of active hMMP-9(cat)_F110A (P14780 107-449 F110A): as the sequence (P14780 107-449 Q199G) above, with F4A, G93Q counted along it
Sequence of active hMMP-9(cat)_L187A (P14780 107-449 L187A): as the sequence (P14780 107-449 Q199G) above, with L81A, G93Q counted along it
Sequence of active hMMP-9(cat)_D185A (P14780 107-449 D185A): as the sequence (P14780 107-449 Q199G) above, with D79A, G93Q counted along it
Sequence of active hMMP-9(cat)_P193A (P14780 107-449 P193A): as the sequence (P14780 107-449 Q199G) above, with P87A, G93Q counted along it
Sequence of active hMMP-9(cat)_R424T (P14780 107-449 R424T): as the sequence (P14780 107-449 Q199G) above, with G93Q, R318T counted along it
Sequence of active hMMP-9(cat)_Y420A (P14780 107-449 Y420A): as the sequence (P14780 107-449 Q199G) above, with G93Q, Y314A counted along it

B1: wild type SPINK2 (other)
chain: GSGMKETAAAKFERQHMDSPDLGTDDDDKAMADIGSANSDPQFGLFSKYRTPNCSQYRLPGCPRHFNPVCGSDMSTYANECTLCMKIREGGHNIKIIRNGPCGASAAA
notes: also called WT; human SPINK2
- binding result [1]: no binding (tested: 1 to 1,000 nM)
- binding result [2]: no binding (tested: 1 to 1,000 nM)

B2: active MMP-9-binding peptide M91011 (designed binder)
chain: GSGMKETAAAKFERQHMDSPDLGTDDDDKAMADIGSANSDPQFGLFSKYRTPNCMMYKYAQCSHKSQPVCGSDMSTYANECTLCMKIREGGHNIKIIRNGPCGASAAA
notes: SPINK2 mutant as prepared in (1-2): Stag+linker 1 at the N-terminal, C-terminal 6-mer at the C-terminal
- binding result (hMMP-9(cat)_E402Q_His6): no binding (tested: 75 µM peptide with 25 µM target)
- IC50 of enzyme inhibition relative to the wild type (active hMMP-9(cat)_V398A): 4.8 times
- IC50 of enzyme inhibition relative to the wild type (active hMMP-9(cat)_M422I): 2.6 times
- IC50 of enzyme inhibition relative to the wild type (active hMMP-9(cat)_D185A): 19 times
- IC50 of enzyme inhibition relative to the wild type (active hMMP-9(cat)_L397A): 3.5 times
- IC50 of enzyme inhibition relative to the wild type (active hMMP-9(cat)_Y423A): > 20 times
- IC50 of enzyme inhibition relative to the wild type (active hMMP-9(cat)_F192A): 5 times
- IC50 of enzyme inhibition relative to the wild type (active hMMP-9(cat)_R424T): 2.7 times
- IC50 of enzyme inhibition relative to the wild type (active hMMP-9(cat)_P193A): 6.5 times
- IC50 of enzyme inhibition relative to the wild type (active hMMP-9(cat)_Y179A): 4.9 times
- IC50 of enzyme inhibition relative to the wild type (active hMMP-9(cat)_Y393A): > 57.6 times
- IC50 of inhibition of substrate peptide degradation (active hMMP-9(cat)): 17 nM
- binding result [2]: no binding (tested: 1 µM)

B3: active MMP-9-binding peptide M91004 (designed binder)
chain: GSGMKETAAAKFERQHMDSPDLGTDDDDKAMADIGSANSDPQFGLFSKYRTPNCRQRKGPSCQMAFQPVCGSDMSTYANECTLCMKIREGGHNIKIIRNGPCGASAAA
notes: as for B2
- binding result [1]: binds
- binding result [2]: no binding (tested: 1 µM)

B4: active MMP-9-binding peptide M91010 (designed binder)
chain: GSGMKETAAAKFERQHMDSPDLGTDDDDKAMADIGSANSDPQFGLFSKYRTPNCRKVGEPACQMSFNPVCGSDMSTYANECTLCMKIREGGHNIKIIRNGPCGASAAA
notes: as for B2
- binding result [1]: binds
- binding result [2]: no binding (tested: 1 µM)

B5: active MMP-9-binding peptide M91001 (designed binder)
chain: GSGMKETAAAKFERQHMDSPDLGTDDDDKAMADIGSANSDPQFGLFSKYRTPNCQRGIGPSCQMSYKPVCGSDMSTYANECTLCMKIREGGHNIKIIRNGPCGASAAA
notes: as for B2
- binding result [1]: binds
- binding result [2]: no binding (tested: 1 µM)

B6: active MMP-9-binding peptide M91014 (designed binder)
chain: GSGMKETAAAKFERQHMDSPDLGTDDDDKAMADIGSANSDPQFGLFSKYRTPNCVMYKYAQCSHKYKPVCGSDMSTYANECTLCMKIREGGHNIKIIRNGPCGASAAA
notes: as for B2
- binding result [1]: binds
- binding result [2]: no binding (tested: 1 µM)

B7: active MMP-9-binding peptide M91002 (designed binder)
chain: GSGMKETAAAKFERQHMDSPDLGTDDDDKAMADIGSANSDPQFGLFSKYRTPNCRTGRGPACQMGFQPVCGSDMSTYANECTLCMKIREGGHNIKIIRNGPCGASAAA
notes: as for B2
- binding result [1]: binds
- binding result [2]: no binding (tested: 1 µM)

B8: active MMP-9-binding peptide M91012 (designed binder)
chain: GSGMKETAAAKFERQHMDSPDLGTDDDDKAMADIGSANSDPQFGLFSKYRTPNCRVRGGPSCQMSFNPVCGSDMSTYANECTLCMKIREGGHNIKIIRNGPCGASAAA
notes: as for B2
- binding result [1]: binds
- binding result [2]: no binding (tested: 1 µM)

B9: active MMP-9-binding peptide M91005 (designed binder)
chain: GSGMKETAAAKFERQHMDSPDLGTDDDDKAMADIGSANSDPQFGLFSKYRTPNCRKRGGPSCQMSYNPVCGSDMSTYANECTLCMKIREGGHNIKIIRNGPCGASAAA
notes: as for B2
- binding result (hMMP-9(cat)_E402Q_His6): no binding (tested: 75 µM peptide with 25 µM target)
- IC50 of enzyme inhibition relative to the wild type (active hMMP-9(cat)_V398A): 2.2 times
- IC50 of enzyme inhibition relative to the wild type (active hMMP-9(cat)_Y420A): 3.1 times
- IC50 of enzyme inhibition relative to the wild type (active hMMP-9(cat)_M422I): 2.6 times
- IC50 of enzyme inhibition relative to the wild type (active hMMP-9(cat)_L397A): 2.2 times
- IC50 of enzyme inhibition relative to the wild type (active hMMP-9(cat)_Y423A): 13.2 times
- IC50 of enzyme inhibition relative to the wild type (active hMMP-9(cat)_F192A): > 57.8 times
- IC50 of enzyme inhibition relative to the wild type (active hMMP-9(cat)_F110A): 4 times
- IC50 of enzyme inhibition relative to the wild type (active hMMP-9(cat)_L187A): 6.7 times
- IC50 of enzyme inhibition relative to the wild type (active hMMP-9(cat)_Y179A): 3.2 times
- IC50 of enzyme inhibition relative to the wild type (active hMMP-9(cat)_Y393A): 2.7 times
- IC50 of enzyme inhibition relative to the wild type (active hMMP-9(cat)_Q199G): 2.3 times
- IC50 of inhibition of substrate peptide degradation (active hMMP-9(cat)): 17 nM
- binding result [2]: no binding (tested: 1 µM)
